Assay [1] concerns the target SIY peptide on H-2Kb (mouse). As to the kind of experiment: value stated in the legend of FIG. 16; method not given.
The target in assay [2] is human immunodeficiency virus (HIV) Gag protein (SL9) peptide on HLA-A*02:01 (human). Description: SL9 peptide titrated on T2 cells, stained with 100 nM multi-biotinylated scTCR (FIG. 11C); soluble, other.
The target of assay [3] is SL9 (HIV-Gag)/HLA.A2 streptavidin:phycoerythrin tetramer (human immunodeficiency virus; human). As to the kind of experiment: cell-based or functional assay.
Assay [4] addresses SIY peptide on H-2Kb (mouse). Description: value cited from Chervin et al. 2009 (ref 18); method not given.
In assay [5] the target is SIY peptide on K^b of antigen presenting cells (T2-K^b). As to the kind of experiment: cell-based or functional assay.
In assay [6] the target is SIY peptide on H-2Kb (mouse). As to the kind of experiment: IL-2 release; transduced 58-/- cells, SIY peptide on T2-K^b (FIG. 17); fusion: CD28, CD3ζ, LCK.
Assay [7] addresses SL9 peptide on HLA.A2 of peptide-loaded HLA.A2+ cells (T2) (human immunodeficiency virus; human). Description: flow cytometry: SL9 peptide titrated on T2 cells, 100 nM biotinylated scTCR; the reference value is from the literature.
The target is the same in assay [8]. Description: flow cytometry: T2 cells loaded with 10 uM SL9, titration of biotinylated scTCR, streptavidin:PE. Background: In flow cytometry, cells or beads pass a laser one at a time.
Assay [9] has the same target. Description: flow cytometry: T2 cells loaded with 10 uM SL9, biotinylated scTCR, streptavidin:PE.

As usually defined, the Kd is the concentration at which binding is half-saturated. Read a low Kd as tighter binding. In assay [1], 2C (full-length αβ TCR) had a Kd of 30 µM.

868-Z11 yielded a lowest SL9 peptide concentration detected in assay [2] of 10 nM.

In assay [3], “868-Z11 scTCR (Vβ-linker-Vα) fused to CD28, CD3ζ, LCK, on the surface of transduced T cells” showed a T cell activation by plate-bound pepMHC tetramer, EC50 of 4 nM.

As to m33 (full-length αβ TCR), the Kd in assay [4] is 16 nM; in [1] it was 0.03 µM.

In assay [5], “m33 scTCR (Vα-linker-Vβ) fused to CD28, CD3ζ, LCK, on the surface of 58-/- T cell hybridoma” returned an IL-2 release, lowest SIY peptide concentration that activates of 1 nM.

As to “m33 scTCR with 2C-T7 stabilizing mutations”, in assay [6], the lowest activating peptide concentration came out at 1 nM.

For orientation: EC50 means the concentration at which the effect is half-maximal. A low value points to higher potency in that assay. For “soluble, biotinylated 868-Z11 single-chain TCR expressed in E. coli (pET28a) and refolded”, in [7], the fold improvement in limit of detection relative to the full-length 868 TCR variant described by Varela-Rohena et al was found to be 5 fold. The EC50 in [8] worked out at 4 nM. Besides, the lowest scTCR concentration at which peptide loaded cells were detected in [9] was 0.1 nM.
